Assay results as given in article PMC9456337.

How the values were obtained:
[1] = biological target: thiocyanate dehydrogenase (TcDH) from Thioalkalivibrio paradoxus ARh 1 (Thioalkalivibrio paradoxus ARh 1); assay: ITC; aliquots (2.6 µL) of CytC552 injected into a 0.2-mL cell with 9.3 µM TcDH; 25 °C; 25 mM borate buffer, pH 9.5; fitted assuming either one or two binding sites of CytC552 in the TcDH dimer
[2] = biological target: thiocyanate dehydrogenase (TcDH) from Thioalkalivibrio paradoxus ARh 1 (Thioalkalivibrio paradoxus ARh 1)
[3] = biological target: recombinant cytochrome c552 (CytC552) from Thioalkalivibrio paradoxus (Thioalkalivibrio paradoxus ARh 1); assay: NMR titration; oxidized 13C/15N-labelled CytC552 titrated with TcDH; intensity of the 1H signal of the heme HAB atom fitted with the Morrison equation; 1H/15N-HSQC chemical shift perturbation at saturating TcDH; slow exchange; 50 mM sodium phosphate, pH 7.0, 303 K

## recombinant cytochrome c552 (CytC552) from Thioalkalivibrio paradoxus (natural protein)
[1]
  Kd: 1.8 µM
[2]
  specific activity of TcDH in thiocyanate oxidation with CytC552 as electron acceptor, pH optimum 9.5: 7.3 µmol/min/mg

## thiocyanate dehydrogenase (TcDH) from Thioalkalivibrio paradoxus ARh 1 (enzyme)
[3]
  Kd: 2 µM
  stoichiometry N: 1
